Tested on: [^3H]NECA-bound A2AR
Assay: Thermostability assay of detergent-solubilised receptor with [3H]NECA bound (ligand plus format)
Type: physicochemical, human
Experimental: […]. After solubilisation in DDM, A2AR was bound to Ni^2+-NTA resin, washed to reduce the DDM concentration and then eluted (see Methods). […]. An aliquot of E. coli cells (14 mL) was thawed on ice and resupended in 500 μL of buffer A [50 mM Tris–HCl (pH 7.4), 0.4 M NaCl, 250 μg/mL lysozyme (Sigma) and 1 mg/mL DNase I (Sigma), supplemented with complete ethylenediaminetetraacetic acid (EDTA)-free Protease inhibitor cocktail (Roche)] and incubated for 1 h at 4 °C. Samples were then sonicated for 1 min at 4 °C using a cup-horn sonicator. The receptors were solubilised by adding 1% DDM and incubated for 1 h at 4 °C. Insoluble material was removed by centrifugation (5 min, 13,000g, 4 °C). The solubilised receptors were partially purified with Ni-NTA agarose (Qiagen). Agarose beads (300 μL) pre-equilibrated in buffer A were added to 700 μL of solubilised receptor. […].
The sample was incubated for 45 min at 4 °C, then 30 min at the specified temperature and then 30 min at 4 °C. Receptor-bound and free radioligands were separated as previously described on mini gel-filtration columns.[26] Receptor-bound ligands were transferred to a 96-well plate (PerkinElmer) and mixed with 200 μL of Optiphase supermix (PerkinElmer). The bound ^3H-labeled ligand was determined using a 1450 Microbeta Trilux counter (1 min per sample).
For all the thermostabilisation studies carried out in our laboratory, the apparent Tm is the temperature for which 50% of the solubilised receptor remains folded after 30 min of incubation. The rate constant of the protein denaturation is a function of the temperature, and consequently, thermal denaturation of a protein can be compared to a chemical reaction for which the rate of the reaction is dependant on the temperature. Arrhenius established that any chemical reaction is temperature dependant. […]. The reference measurement representing the total binding activity of the sample A0 was considered to be measured at 4 °C. From the graphical representation t = Log10(t1/2) (Fig. 2c), we could extract a half-life for each construct at any temperature to define the improvement in stability of the various mutants compared to WT A2AR.

Row | Molecule | Apparent Tm in DDM, Single measurement | also measured
1 | GL10: A2AR mutant L48A-Q89A (protein, UniProt P29274 1-412, looked up, variant L48A Q89A) Adenosine receptor A2a: MPIMGSSVYITVELAIAVLAILGNVLVCWAVWLNSNLQNVTNYFVVSAAAADIAVGVLAIPFAITISTGFCAACHGCLFIACFVLVLTASSIFSLLAIAIDRYIAIRIPLRYNGLVTGTRAKGIIAICWVLSFAIGLTPMLGWNNCGQPKEGKNHSQGCGEGQVACLFEDVVPMNYMVYFNFFACVLVPLLLMLGVYLRIFLAARRQLKQMESQPLPGERARSTLQKEVHAAKSLAIIVGLFALCWLPLHIINCFTFFCPDCSHAPLWLMYLAIVLSHTNSVVNPFIYAYRIREFRQTFRKIIRSHVLRQQEPFKAAGTSARVLAAHGSDGEQVSLRLNGHPPGVWANGSAPHPERRPNGYALGLVSGGSAQESQGNTGLPDVELLSHELKGVCPEPPGLDDPLAQDGAGVS | 47.5 °C | Improvement in stability compared to WT based on t1/2 (decrease in rate of unfolding) ([3H]NECA bound, DDM, from Fig. 2c): 136 fold
2 | GL9: A2AR mutant L48A-F83A (protein, UniProt P29274 1-412, looked up, variant L48A F83A) Adenosine receptor A2a: MPIMGSSVYITVELAIAVLAILGNVLVCWAVWLNSNLQNVTNYFVVSAAAADIAVGVLAIPFAITISTGFCAACHGCLFIACAVLVLTQSSIFSLLAIAIDRYIAIRIPLRYNGLVTGTRAKGIIAICWVLSFAIGLTPMLGWNNCGQPKEGKNHSQGCGEGQVACLFEDVVPMNYMVYFNFFACVLVPLLLMLGVYLRIFLAARRQLKQMESQPLPGERARSTLQKEVHAAKSLAIIVGLFALCWLPLHIINCFTFFCPDCSHAPLWLMYLAIVLSHTNSVVNPFIYAYRIREFRQTFRKIIRSHVLRQQEPFKAAGTSARVLAAHGSDGEQVSLRLNGHPPGVWANGSAPHPERRPNGYALGLVSGGSAQESQGNTGLPDVELLSHELKGVCPEPPGLDDPLAQDGAGVS | 43.5 °C | 
3 | GL11: A2AR mutant L48A-S90A (protein, UniProt P29274 1-412, looked up, variant L48A S90A) Adenosine receptor A2a: MPIMGSSVYITVELAIAVLAILGNVLVCWAVWLNSNLQNVTNYFVVSAAAADIAVGVLAIPFAITISTGFCAACHGCLFIACFVLVLTQASIFSLLAIAIDRYIAIRIPLRYNGLVTGTRAKGIIAICWVLSFAIGLTPMLGWNNCGQPKEGKNHSQGCGEGQVACLFEDVVPMNYMVYFNFFACVLVPLLLMLGVYLRIFLAARRQLKQMESQPLPGERARSTLQKEVHAAKSLAIIVGLFALCWLPLHIINCFTFFCPDCSHAPLWLMYLAIVLSHTNSVVNPFIYAYRIREFRQTFRKIIRSHVLRQQEPFKAAGTSARVLAAHGSDGEQVSLRLNGHPPGVWANGSAPHPERRPNGYALGLVSGGSAQESQGNTGLPDVELLSHELKGVCPEPPGLDDPLAQDGAGVS | 46 °C | 
4 | GL26: A2AR mutant L48A-Q89A-T65A-A54L (protein, UniProt P29274 1-412, looked up, variant L48A Q89A T65A A54L) Adenosine receptor A2a: MPIMGSSVYITVELAIAVLAILGNVLVCWAVWLNSNLQNVTNYFVVSAAAADILVGVLAIPFAIAISTGFCAACHGCLFIACFVLVLTASSIFSLLAIAIDRYIAIRIPLRYNGLVTGTRAKGIIAICWVLSFAIGLTPMLGWNNCGQPKEGKNHSQGCGEGQVACLFEDVVPMNYMVYFNFFACVLVPLLLMLGVYLRIFLAARRQLKQMESQPLPGERARSTLQKEVHAAKSLAIIVGLFALCWLPLHIINCFTFFCPDCSHAPLWLMYLAIVLSHTNSVVNPFIYAYRIREFRQTFRKIIRSHVLRQQEPFKAAGTSARVLAAHGSDGEQVSLRLNGHPPGVWANGSAPHPERRPNGYALGLVSGGSAQESQGNTGLPDVELLSHELKGVCPEPPGLDDPLAQDGAGVS |  | Apparent Tm in DM, Single measurement: 46 °C; Increase in stability versus WT receptor in DM (DM): 21.5 °C
5 | GL14: A2AR mutant L48A-A236L (protein, UniProt P29274 1-412, looked up, variant L48A A236L) Adenosine receptor A2a: MPIMGSSVYITVELAIAVLAILGNVLVCWAVWLNSNLQNVTNYFVVSAAAADIAVGVLAIPFAITISTGFCAACHGCLFIACFVLVLTQSSIFSLLAIAIDRYIAIRIPLRYNGLVTGTRAKGIIAICWVLSFAIGLTPMLGWNNCGQPKEGKNHSQGCGEGQVACLFEDVVPMNYMVYFNFFACVLVPLLLMLGVYLRIFLAARRQLKQMESQPLPGERARSTLQKEVHAAKSLLIIVGLFALCWLPLHIINCFTFFCPDCSHAPLWLMYLAIVLSHTNSVVNPFIYAYRIREFRQTFRKIIRSHVLRQQEPFKAAGTSARVLAAHGSDGEQVSLRLNGHPPGVWANGSAPHPERRPNGYALGLVSGGSAQESQGNTGLPDVELLSHELKGVCPEPPGLDDPLAQDGAGVS | 40.5 °C | 
6 | GL7: A2AR mutant L48A-T65A (protein, UniProt P29274 1-412, looked up, variant L48A T65A) Adenosine receptor A2a: MPIMGSSVYITVELAIAVLAILGNVLVCWAVWLNSNLQNVTNYFVVSAAAADIAVGVLAIPFAIAISTGFCAACHGCLFIACFVLVLTQSSIFSLLAIAIDRYIAIRIPLRYNGLVTGTRAKGIIAICWVLSFAIGLTPMLGWNNCGQPKEGKNHSQGCGEGQVACLFEDVVPMNYMVYFNFFACVLVPLLLMLGVYLRIFLAARRQLKQMESQPLPGERARSTLQKEVHAAKSLAIIVGLFALCWLPLHIINCFTFFCPDCSHAPLWLMYLAIVLSHTNSVVNPFIYAYRIREFRQTFRKIIRSHVLRQQEPFKAAGTSARVLAAHGSDGEQVSLRLNGHPPGVWANGSAPHPERRPNGYALGLVSGGSAQESQGNTGLPDVELLSHELKGVCPEPPGLDDPLAQDGAGVS | 45 °C | 
7 | GL8: A2AR mutant L48A-F79A (protein, UniProt P29274 1-412, looked up, variant L48A F79A) Adenosine receptor A2a: MPIMGSSVYITVELAIAVLAILGNVLVCWAVWLNSNLQNVTNYFVVSAAAADIAVGVLAIPFAITISTGFCAACHGCLAIACFVLVLTQSSIFSLLAIAIDRYIAIRIPLRYNGLVTGTRAKGIIAICWVLSFAIGLTPMLGWNNCGQPKEGKNHSQGCGEGQVACLFEDVVPMNYMVYFNFFACVLVPLLLMLGVYLRIFLAARRQLKQMESQPLPGERARSTLQKEVHAAKSLAIIVGLFALCWLPLHIINCFTFFCPDCSHAPLWLMYLAIVLSHTNSVVNPFIYAYRIREFRQTFRKIIRSHVLRQQEPFKAAGTSARVLAAHGSDGEQVSLRLNGHPPGVWANGSAPHPERRPNGYALGLVSGGSAQESQGNTGLPDVELLSHELKGVCPEPPGLDDPLAQDGAGVS | 45.5 °C | 
8 | GL17: A2AR mutant L48A-F242A (protein, UniProt P29274 1-412, looked up, variant L48A F242A) Adenosine receptor A2a: MPIMGSSVYITVELAIAVLAILGNVLVCWAVWLNSNLQNVTNYFVVSAAAADIAVGVLAIPFAITISTGFCAACHGCLFIACFVLVLTQSSIFSLLAIAIDRYIAIRIPLRYNGLVTGTRAKGIIAICWVLSFAIGLTPMLGWNNCGQPKEGKNHSQGCGEGQVACLFEDVVPMNYMVYFNFFACVLVPLLLMLGVYLRIFLAARRQLKQMESQPLPGERARSTLQKEVHAAKSLAIIVGLAALCWLPLHIINCFTFFCPDCSHAPLWLMYLAIVLSHTNSVVNPFIYAYRIREFRQTFRKIIRSHVLRQQEPFKAAGTSARVLAAHGSDGEQVSLRLNGHPPGVWANGSAPHPERRPNGYALGLVSGGSAQESQGNTGLPDVELLSHELKGVCPEPPGLDDPLAQDGAGVS | 39.5 °C | 
9 | GL15: A2AR mutant L48A-I238A (protein, UniProt P29274 1-412, looked up, variant L48A I238A) Adenosine receptor A2a: MPIMGSSVYITVELAIAVLAILGNVLVCWAVWLNSNLQNVTNYFVVSAAAADIAVGVLAIPFAITISTGFCAACHGCLFIACFVLVLTQSSIFSLLAIAIDRYIAIRIPLRYNGLVTGTRAKGIIAICWVLSFAIGLTPMLGWNNCGQPKEGKNHSQGCGEGQVACLFEDVVPMNYMVYFNFFACVLVPLLLMLGVYLRIFLAARRQLKQMESQPLPGERARSTLQKEVHAAKSLAIAVGLFALCWLPLHIINCFTFFCPDCSHAPLWLMYLAIVLSHTNSVVNPFIYAYRIREFRQTFRKIIRSHVLRQQEPFKAAGTSARVLAAHGSDGEQVSLRLNGHPPGVWANGSAPHPERRPNGYALGLVSGGSAQESQGNTGLPDVELLSHELKGVCPEPPGLDDPLAQDGAGVS | 42.5 °C | 

Reference: publication PMC3145977, “Thermostabilisation of an Agonist-Bound Conformation of the Human Adenosine A2A Receptor” (Journal of Molecular Biology, 2011)
